Results taken from patent US20140120095A1 (Boehringer Ingelheim, published 2014).
Where two headings read alike, the source gives them in different places.

Key:
mDLL4.11 = mDLL4.11 (mouse); assay: Biacore, VHH on chip, 200 nM DLL4 sample injected
hDLL4.5 = hDLL4.5 (human); assay: Biacore, VHH on chip, 200 nM DLL4 sample injected
recombinant mouse DLL4 = biological target: T1, recombinant mouse DLL4 (mouse, UniProt Q9JI71 27-532); assay: Biacore, VHH on chip, 200 nM DLL4 sample injected
T1 construct: extracellular domain; also called rmDLL4; mDLL4
T1 sequence (Q9JI71 27-532): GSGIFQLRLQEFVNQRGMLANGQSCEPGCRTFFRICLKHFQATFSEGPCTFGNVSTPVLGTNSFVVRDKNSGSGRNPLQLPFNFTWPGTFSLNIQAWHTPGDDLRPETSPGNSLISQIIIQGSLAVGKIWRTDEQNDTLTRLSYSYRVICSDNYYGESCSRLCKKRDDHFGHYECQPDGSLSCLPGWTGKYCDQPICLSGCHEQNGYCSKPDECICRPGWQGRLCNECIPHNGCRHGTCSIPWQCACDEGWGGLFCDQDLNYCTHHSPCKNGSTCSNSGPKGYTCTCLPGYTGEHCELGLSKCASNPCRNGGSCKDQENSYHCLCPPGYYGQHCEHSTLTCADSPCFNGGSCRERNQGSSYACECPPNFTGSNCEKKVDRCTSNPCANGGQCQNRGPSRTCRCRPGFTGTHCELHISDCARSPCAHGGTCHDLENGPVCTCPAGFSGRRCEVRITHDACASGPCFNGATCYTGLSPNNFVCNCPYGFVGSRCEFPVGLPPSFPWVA

hDLL4.3 = hDLL4.3 (human); assay: Biacore, VHH on chip, 200 nM DLL4 sample injected
recombinant human DLL4 [1] = biological target: T2, recombinant human DLL4 (human, UniProt Q9NR61 25-522); assay: Biacore, VHH on chip, 200 nM DLL4 sample injected
T2 construct: also called rhDLL4; hDLL4
T2 sequence (Q9NR61 25-522): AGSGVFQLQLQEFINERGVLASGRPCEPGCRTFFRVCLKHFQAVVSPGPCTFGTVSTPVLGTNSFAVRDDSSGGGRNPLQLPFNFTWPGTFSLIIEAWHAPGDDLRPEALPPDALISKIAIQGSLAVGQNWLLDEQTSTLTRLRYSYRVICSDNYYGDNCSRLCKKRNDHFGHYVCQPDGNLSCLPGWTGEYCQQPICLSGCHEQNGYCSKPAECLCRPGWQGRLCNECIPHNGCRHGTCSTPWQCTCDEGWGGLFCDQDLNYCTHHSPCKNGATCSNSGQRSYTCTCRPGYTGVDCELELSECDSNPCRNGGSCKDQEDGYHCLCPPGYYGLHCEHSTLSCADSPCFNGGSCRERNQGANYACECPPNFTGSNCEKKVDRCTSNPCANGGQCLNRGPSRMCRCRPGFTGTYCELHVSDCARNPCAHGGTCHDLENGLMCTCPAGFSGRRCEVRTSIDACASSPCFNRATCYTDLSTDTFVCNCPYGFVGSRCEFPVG

hDLL4.6 = hDLL4.6 (human); assay: Biacore, VHH on chip, 200 nM DLL4 sample injected
mDLL4.10 = mDLL4.10 (mouse); assay: Biacore, VHH on chip, 200 nM DLL4 sample injected
mDLL4.12 = mDLL4.12 (mouse); assay: Biacore, VHH on chip, 200 nM DLL4 sample injected
recombinant human DLL4 [2] = biological target: T2, recombinant human DLL4; assay: competition ELISA, biot-hDLL4 to coated hNotch1-Fc
Description: Residual binding of biotinylated human DII4 is detected using horseradish peroxidase (HRP) conjugated extravidin (Sigma, St. Louis, Mo., USA) (FIG. 3 A-C). Human DII4 is biotinylated as described above.

recombinant human DLL4 [3] = biological target: T2, recombinant human DLL4; assay: Biacore off-rate, periplasmic extract
recombinant human DLL4 [4] = biological target: T2, recombinant human DLL4; assay: binding ELISA, coated rhDLL4
Protocol: In order to determine cross-reactivity to mouse DII4 a binding ELISA is performed. […] Wells are blocked with a casein solution (1% in PBS). VHHs are applied as dilution series and binding is detected using a mouse anti-myc (Roche) and an anti-mouse-AP conjugate (Sigma, St Louis, Mo., USA) (FIG. 7 A-H). As reference, binding to human DII4 is measured.

human DLL1 (Alexis) [5] = biological target: T3, human DLL1 (Alexis) (human, UniProt O00548 18-545, limits assumed); assay: binding ELISA on coated human DLL1 (Example 5.8, Example 7), OD 450 nm
T3 construct: also called hDLL1
T3 sequence (looked up): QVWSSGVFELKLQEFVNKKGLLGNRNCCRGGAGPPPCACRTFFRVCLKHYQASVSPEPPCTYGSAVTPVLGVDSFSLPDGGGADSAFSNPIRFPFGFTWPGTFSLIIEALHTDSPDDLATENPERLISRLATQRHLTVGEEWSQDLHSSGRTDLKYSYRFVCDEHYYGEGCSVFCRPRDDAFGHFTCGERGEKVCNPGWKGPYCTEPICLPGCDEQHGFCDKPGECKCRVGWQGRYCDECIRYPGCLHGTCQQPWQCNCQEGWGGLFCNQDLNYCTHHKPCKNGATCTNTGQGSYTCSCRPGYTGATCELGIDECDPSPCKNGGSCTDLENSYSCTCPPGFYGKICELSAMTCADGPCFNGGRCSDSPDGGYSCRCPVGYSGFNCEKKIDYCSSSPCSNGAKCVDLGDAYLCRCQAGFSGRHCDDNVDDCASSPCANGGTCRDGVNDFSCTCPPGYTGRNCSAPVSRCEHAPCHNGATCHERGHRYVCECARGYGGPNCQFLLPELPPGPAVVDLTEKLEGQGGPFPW

[6] = biological target: T4, recombinant human DLL4 (C-terminally His-tagged extracellular domain, R&D Systems) (human, UniProt Q9NR61 25-522, biotinylated in the competition ELISA); assay: ProteOn off-rate screen, periplasmic extract, coated human DLL4
T4 construct: also called rhDLL4; hDLL4
T4 sequence (Q9NR61 25-522): as the sequence (Q9NR61 25-522) above
Protocol: In a first cycle, amino acid substitutions are introduced randomly in both framework (FW) and complementary determining regions (CDR) using the error-prone PCR method. […] After a polish step, PCR products are inserted via unique restriction sites into a vector designed to facilitate phage display of the VHH library. Consecutive rounds of in-solution selections are performed using decreasing concentrations of biotinylated recombinant human DLL4 (biot-rhDLL4) and trypsin elutions. Affinity-driven selections in a third round using cold rhDLL4 (at least 100× excess over biot-rhDLL4) are also performed. No selections on murine DLL4 are included as (conservation of) cross-reactivity is assessed at the screening level. Individual mutants are produced as recombinant protein using an expression vector derived from pUC119, which contains the LacZ promoter, a resistance gene for ampicillin, a multiple cloning site and an ompA leader sequence (pAX50). E. coliTG1 cells are transformed with the expression vector library and plated on agar plates (LB+Amp+2% glucose). Single colonies are picked from the agar plates and grown in 1 mL 96-deep-well plates. VHH expression is induced by adding IPTG (1 mM). Periplasmic extracts (in a volume of ˜80 uL) are prepared according to standard methods and screened for binding to recombinant human and mouse DII4 in a ProteOn (BioRad, Hercules, Calif., USA) off-rate assay. In brief, a GLC ProteOn Sensor chip is coated with recombinant human DII4 on the “ligand channels” L2 and L4 (with L1/L3 as reference channel), while “ligand channels” […] is coated with mouse DII4. Periplasmic extract of affinity-matured clones is diluted 1/10 and injected across the “analyte channels” A1-A6. An average off-rate is calculated of the wild type clones present in the plate and served as a reference to calculate off-rate improvements.

human DLL1 (Alexis) [7] = biological target: T3, human DLL1 (Alexis); assay: binding ELISA on coated human DLL1 (Example 5.8, Example 7), OD 450 nm; remark: listed apart in the source

B1: DLLBII56A09 (VHH)
VHH: EVQLVESGGGLVQPGGSLRLSCAASGFTFDDYAIGWFRQAPGKEPEGISCISSSGGITYYADSVKGRFTTSRDNAKNTVYLQMNSLKPEDTAVYYCATPGIAACRGIHYTGQGTQVTVSS
notes: also called 56A9; DLLBII56A9
- Binding (RU) (mDLL4.11): 132 RU
- koff (mDLL4.11): 0.0016 s⁻¹
- Binding (RU) (hDLL4.5): 143 RU
- koff (hDLL4.5): 0.0012 s⁻¹
- Binding (RU) (recombinant mouse DLL4): 389 RU
- koff (recombinant mouse DLL4): 0.0019 s⁻¹
- Binding (RU) (hDLL4.3): 125 RU
- koff (hDLL4.3): 0.00074 s⁻¹
- Binding (RU) (recombinant human DLL4 [1]): 281 RU
- koff (recombinant human DLL4 [1]): 0.00095 s⁻¹
- Binding (RU) (hDLL4.6): 136 RU
- koff (hDLL4.6): 0.0011 s⁻¹
- Binding (RU) (mDLL4.10): 141 RU
- koff (mDLL4.10): 0.0011 s⁻¹
- Binding (RU) (mDLL4.12): 161 RU
- koff (mDLL4.12): 0.0013 s⁻¹
- IC50 (recombinant human DLL4 [2]): 4.9 nM
- koff (recombinant human DLL4 [3]): 0.0011 s⁻¹
- EC50 (recombinant human DLL4 [4]): 3.6 nM

B2: DLLBII115A05 (VHH)
VHH: EVQLVESGGGLVQPGGSLRLSCAASGFTFGSYDMSWVRRSPGKGPEWVSSINSGGGSTYYADFVKGRFTISRDNAKNTLYLQMNSLKPEDTAVYYCAADRYIRARQGDYWGAYEYDYWGQGTQVTVSS
notes: also called 115A5; DLLBII115A5
- Binding (RU) (mDLL4.11): 121 RU
- koff (mDLL4.11): 0.0066 s⁻¹
- Binding (RU) (hDLL4.5): 162 RU
- koff (hDLL4.5): 0.0042 s⁻¹
- Binding (RU) (recombinant mouse DLL4): 344 RU
- koff (recombinant mouse DLL4): 0.0065 s⁻¹
- Binding (RU) (hDLL4.3): 137 RU
- koff (hDLL4.3): 0.0035 s⁻¹
- Binding (RU) (recombinant human DLL4 [1]): 324 RU
- koff (recombinant human DLL4 [1]): 0.0035 s⁻¹
- Binding (RU) (hDLL4.6): 152 RU
- koff (hDLL4.6): 0.0041 s⁻¹
- Binding (RU) (mDLL4.10): 121 RU
- koff (mDLL4.10): 0.0038 s⁻¹
- Binding (RU) (mDLL4.12): 152 RU
- koff (mDLL4.12): 0.0031 s⁻¹
- IC50 (recombinant human DLL4 [2]): 9.1 nM
- koff (recombinant human DLL4 [3]): 0.0031 s⁻¹
- EC50 (recombinant human DLL4 [4]): 5 nM

B3: DLLBII015 (VHH, not shown: small tags and cut ends)
VHH: EVQLVESGGGLVQPGGSLRLSCAASGFTIGSYDMSWVRRSPGKGPEWVSAINSGGGSTYYADYVKGRFTISRDNAKNTLYLQMNSLKPEDTAVYYCAADRYIWARQGEYWGAYAYDYWGQGTQVTVSS
- binding result (human DLL1 (Alexis) [5]): no binding (tested: log[M] -6.1 (about 8e-7 M))

B4: DLLBII133G05 (VHH, not shown: small tags and cut ends)
VHH: EVQLVESGGGLVQPGGSLRLSCAASGFTFGSYDMSWVRRSPGKGPEWVSAINSGGGSTYYTDYVKGRFTISRDNAKNTLYLQMNSLKPEDTAVYYCAADRYIWARQGEYWGAYAYDYWGQGTQVTVSS
- binding result (human DLL1 (Alexis) [5]): no binding (tested: log[M] -6.1 (about 8e-7 M))

B5: DLLBII133A09 (VHH, not shown: small tags and cut ends)
VHH: EVQLVESGGGLVQPGGSLRLSCAASGFTFGSYDMSWVRRSPGKGPEWVSAINSGGGSTYYADYVKGRFTISRDNAKNTLYLQMNSLKPEDTAVYYCAADRYIWARQGEYWGAYAYDYWGQGTQVTVSS
- binding result (human DLL1 (Alexis) [5]): no binding (tested: log[M] -6.1 (about 8e-7 M))

B6: DLLBII136C07 (VHH, not shown: small tags and cut ends)
VHH: EVQLVESGGGLVQPGGSLRLSCAASGFTFGSYDMSWVRRSPGKGPEWVSSINSGGGSTYYADYVKGRFTISRDNAKNTLYLQMNSLKPEDTAVYYCAADRYIWARQGEYWGAYEYDYWGQGTQVTVSS
- binding result (human DLL1 (Alexis) [5]): no binding (tested: log[M] -6.1 (about 8e-7 M))

B7: DLLBII101G08 (VHH)
VHH: EVQLVESGGGLVQAGGSLRLSCAASGRTFSSYAMAWFRQAPGKEREFVAAIRWSGGTAYYADSVQGRFTISRDNAKNTVYLQMNSLKPEDTAVYYCANRAADTRLGPYEYDYWGQGTQVTVSS
notes: also called 101G8; DLLBII101G8
- Binding (RU) (mDLL4.11): 210 RU
- koff (mDLL4.11): 0.00616 s⁻¹
- Binding (RU) (hDLL4.5): 266 RU
- koff (hDLL4.5): 0.00219 s⁻¹
- Binding (RU) (recombinant mouse DLL4): 502 RU
- koff (recombinant mouse DLL4): 0.006 s⁻¹
- Binding (RU) (hDLL4.3): 198 RU
- koff (hDLL4.3): 0.00465 s⁻¹
- Binding (RU) (recombinant human DLL4 [1]): 373 RU
- koff (recombinant human DLL4 [1]): 0.002 s⁻¹
- Binding (RU) (hDLL4.6): 229 RU
- koff (hDLL4.6): 0.0022 s⁻¹
- Binding (RU) (mDLL4.10): 189 RU
- koff (mDLL4.10): 0.00514 s⁻¹
- Binding (RU) (mDLL4.12): 244 RU
- koff (mDLL4.12): 0.00452 s⁻¹
- IC50 (recombinant human DLL4 [2]): 9.5 nM
- koff (recombinant human DLL4 [3]): 0.0021 s⁻¹
- EC50 (recombinant human DLL4 [4]): 8.9 nM

B8: DLLBII101G08 (VHH, not shown: small tags and cut ends)
VHH: EVQLVESGGGLVQAGGSLRLSCAASGRTFSSYAMAWFRQAPGKEREFVAAIRWSGGTAYYADSVQGRFTISRDNAKNTVYLQMNSLKPEDTAVYYCANRAADTRLGPYEYDYWGQGTQVTVSS
notes: parent VHH; also called 101G08 (wt); 101G8
- fold (off-rate vs DLLBII101G08) [6]: 1 fold
- koff [6]: 0.0022 s⁻¹
- binding result (human DLL1 (Alexis) [7]): no binding (tested: log[M] -6.1 (about 8e-7 M))

B9: DLLBII129B05 (VHH, not shown: small tags and cut ends)
VHH: EVQLVESGGGLVQAGGSLRLSCAASGRTFSSYAMAWYRQAPGKEREYVAAIRWSGGTAYYADSVQGRFTISRDNAKNTVYLQMNSLKPEDTAVYYCANRAPDTRLAPYEYDHWGQGTQVTVSS
- fold (off-rate vs DLLBII101G08) [6]: 24 fold
- koff [6]: 9.3e-05 s⁻¹
- binding result (human DLL1 (Alexis) [7]): no binding (tested: log[M] -6.1 (about 8e-7 M))

B10: DLLBII129E11 (VHH, not shown: small tags and cut ends)
VHH: EVQLVESGGGLVQAGGSLRLSCAASGRTFSSYAMAWYRQAPGKEREYVAAIRWSGGTAYYADSVQGRFTISRDNAKNTVYLQMNSLKPEDTAVYYCANRAPDTRLRPYLYDYWGQGTQVTVSS
- fold (off-rate vs DLLBII101G08) [6]: 28 fold
- koff [6]: 8e-05 s⁻¹
- binding result (human DLL1 (Alexis) [7]): no binding (tested: log[M] -6.1 (about 8e-7 M))

B11: DLLBII129D08 (VHH, not shown: small tags and cut ends)
VHH: EVQLVESGGGLVQAGGSLRLSCAASGRTFSSYAMAWYRQAPGKEREYVAAIRWSGGTAYYADSVQGRFTISRDNAKNTVYLQMNSLKPEDTAVYYCANRAPDTRLEPYLYDYWGQGTQVTVSS
- fold (off-rate vs DLLBII101G08) [6]: 38 fold
- koff [6]: 5.9e-05 s⁻¹
- binding result (human DLL1 (Alexis) [7]): no binding (tested: log[M] -6.1 (about 8e-7 M))
